Experimental data reported in patent US9144594B2, “Cathepsin L mediated diseases and associated methods and products” (University of Miami, priority 2005, dated 2015).
Positions count from the first letter of the chain named. Numbers in names are those of the source. Entries after “also recorded” stand apart in the source; their conditions may differ.

B1: dynK44A: dominant-negative dynamin mutant that cannot bind GTP (protein, UniProt Q05193 1-864, looked up, variant K44A)
Dynamin-1: MGNRGMEDLIPLVNRLQDAFSAIGQNADLDLPQIAVVGGQSAGASSVLENFVGRDFLPRGSGIVTRRPLVLQLVNATTEYAEFLHCKGKKFTDFEEVRLEIEAETDRVTGTNKGISPVPINLRVYSPHVLNLTLVDLPGMTKVPVGDQPPDIEFQIRDMLMQFVTKENCLILAVSPANSDLANSDALKVAKEVDPQGQRTIGVITKLDLMDEGTDARDVLENKLLPLRRGYIGVVNRSQKDIDGKKDITAALAAERKFFLSHPSYRHLADRMGTPYLQKVLNQQLTNHIRDTLPGLRNKLQSQLLSIEKEVEEYKNFRPDDPARKTKALLQMVQQFAVDFEKRIEGSGDQIDTYELSGGARINRIFHERFPFELVKMEFDEKELRREISYAIKNIHGIRTGLFTPDMAFETIVKKQVKKIREPCLKCVDMVISELISTVRQCTKKLQQYPRLREEMERIVTTHIREREGRTKEQVMLLIDIELAYMNTNHEDFIGFANAQQRSNQMNKKKTSGNQDEILVIRKGWLTINNIGIMKGGSKEYWFVLTAENLSWYKDDEEKEKKYMLSVDNLKLRDVEKGFMSSKHIFALFNTEQRNVYKDYRQLELACETQEEVDSWKASFLRAGVYPERVGDKEKASETEENGSDSFMHSMDPQLERQVETIRNLVDSYMAIVNKTVRDLMPKTIMHLMINNTKEFIFSELLANLYSCGDQNTLMEESAEQAQRRDEMLRMYHALKEALSIIGDINTTTVSTPMPPPVDDSWLQVQSVPAGRRSPTSSPTPQRRAPAVPPARPGSRGPAPGPPPAGSALGGAPPVPSRPGASPDPFGPPPQVPSRPNRAPPGVPSRSGQASPSRPESPRPPFDL
B2: dynR725A: dynamin mutant (SEQ ID NO.4) with impaired GTP hydrolysis capacity (protein, listed as Homo sapiens)
chain: B1 Dynamin-1 with A44K, R725A
B3: dynK694A: dominant activator dynamin mutant impaired in self-assembly (protein)
chain: B1 Dynamin-1 with A44K, K694A
B4: dynL356Q, G358V: dynamin mutant (SEQ ID NO.3) not recognized by cathepsin L; ELSGGA mutated to EQSVGA (protein, listed as Homo sapiens)
chain: B1 Dynamin-1 with A44K, L356Q, G358V

How the values were obtained:
cathepsin L = test: Generation of dynamin p40 fragment in LPS-treated cultured podocytes (Western blot); format: cell-based, mouse; settings: podocytes expressing the variant, LPS-treated
Description: Next, it was examined whether cathepsin L could process dynamin in vivo, and whether this processing required GTP binding by dynamin. To this end, cultured podocytes were infected with adenoviruses expressing dynWT as well as different dynamin mutants. Infected podocytes were subsequently treated with LPS. LPS treatment increases cathepsin L presence and the activity in the cytosol (FIG. 3), and thus is expected to induce generation of the 40 kD proteolytic fragment. Respective cytosols were probed using the GTPase antibodies in order to detect N-terminal 40 kD proteolytic fragment. Expression of dynWT in podocytes treated with LPS identified proteolytic fragments that traveled with the same mobility as fragments observed in vitro. […] Furthermore, significant amount of p40 was present in cells expressing dynR725A prior to LPS treatment. […] Given complete protection of cathepsin L cleavage by GTPγS, it was reasoned that LPS treatment was somehow inducing dynR725A self-assembly, which in turn was protecting dynR725A from cathepsin L cleavage. This in turn would explain ability of dynR725A to counteract LPS and PAN treatment (FIG. 1D). […] Biochemical difference between dynWT, dynK694A and dynR725A is that only dynR725A is impaired in the rate of GTP-hydrolysis of assembled dynamin. This is important because GTP-hydrolysis drives disassemble of dynamin. Thus, while all three dynamins are predicted to self-assemble by LPS treatment, only dynR725A will stay assembled due to its inability to hydrolyze GTP. Once assembled dynWT and dynK694A hydrolyze GTP they will fall apart and thus become accessible for cathepsin L cleavage.
To explore CatL-mediated dynamin cleavage in vivo, cultured podocytes were infected with adenoviruses encoding different dynamin mutants and subsequently treated with LPS (FIG. 19G). […] To confirm the identity of the cleavage site, the ELSGGA (SEQ ID NO.29) sequence was mutated to EQSVGA (SEQ ID NO.31) (for simplicity, the mutant is subsequently referred to as dynL356Q). […] Finally, a GTPase-defective dynamin mutant was examined. Dynamin carrying a mutation in its […] (dynR725A) oligomerizes, but is impaired in assembly-stimulated GTP-hydrolysis. DynR725A is therefore predicted to live longer in the assembled state.
Podocytes were grown under non-permissive conditions to 70% confluence. Cells were washed twice with 1×PBS and infected with 1.2 ml of serum-free DMEM media containing 100 μl transactivator virus, 100 μl virus expressing dyn1 or dyn2. After 2 h of infection at 37° C., media containing virus was replaced with full DMEM. If cells were treated with LPS or PAN, 50 μg/ml of LPS or 50 μg/ml PAN was added at this point. 18-24 h post-infection, cells were detached using trypsin and processed either for subcellular fractionation or tested in the motility assays as described in (Reiser et al., J Biol Chem 279, 34827-34832 (2004)). When stated, 20 μM of Z-FF-FMK CatL specific inhibitor (Calbiochem, San Diego, Calif.) was added simultaneously with addition of LPS.

podocytes = test: Rhodamine-transferrin uptake (endocytosis) in podocytes; format: cell-based, mouse; settings: overexpression in podocytes
Method: Since dynamin is known to play a major role in regulation of clathrin-mediated endocytosis, it appeared possible that the observed actin phenotypes as described above were indirect consequence of changes in endocytosis. […] While LPS treatment of cells overexpressing dynWT had no effect on endocytosis of rhodamine-transferrin (FIG. 1D), it did induce cell motility and changes in actin cytoskeleton.
Conditionally immortalized mouse podocyte cell lines were grown as described previously (Mundel et al., Exp Cell Res 236; 248-258; (1997)). Dynamin antibodies: Anti-dynamin (hudy 1) monoclonal antibody was purchased from Upstate Technology (Lake Placid, N.Y.); mouse anti-dyn1 monoclonal antibody (MAB 5402) was from Chemicon (Temecula, Calif.); mouse anti-dyn1 monoclonal antibody (VAM-SVO41) was from StressGene (Victoria, Canada). The rabbit antiserum against mouse CatL was used as described (Ishidoh and Kominami, 1994). For immunogold and immunocytochemistry analysis of CatL, we used a rabbit polyclonal antibody against CatL as described before (Ahn et al., Traffic 3, 147-159 (2002)). CatL −/− fibroblasts were maintained as described previously (Hsieh et al., J Immunol 168, 2618-2625 (2002)). Stable CatL knock-down cell lines were generated with a vector-based siRNA directed against CatL (target sequence 5′-GTGGACTGTTCTCACGCT-3; SEQ ID NO.32). Quantitative PCR was performed on a Applied Biosystems 7300 Real-Time PCR System. Fold-expression changes were calculated using the comparative CT method for relative quantitation with the equation 2^−ΔΔCT. Protein expression levels for dynamin and CatL were calculated using densitometric analysis with Kodak imaging software. Statistical significance was assessed with the unpaired t-test with Welch's correction. Transfections with CatL constructs were performed using Lipofectamine 2000 (Invitrogen) following manufacturer's instructions. Immunocytochemical analysis of cultured podocytes was done as described (Reiser et al., J Biol Chem 279, 34827-34832 (2004)). Immunoperoxidase labeling of human tissue was done on formalin fixed kidney biopsies embedded in paraffin. Transmission electron microscopy (TEM) and immunoelectron microscopy (IEM) were performed as described (Regele et al., J Am Soc Nephrol 11, 403-412 (2000)). Subcellular fractionation of cultured cells was performed as described (Damke et al., J Cell Biol 127, 915-934 (1994)). Internalization of rhodamine-transferrin (R-Tfn) was performed using 20 μg/ml R-Tfn in PBS containing 1 mM CaCl2, 1 mM MgCl2, 5 mM glucose, and 0.2% BSA for 10 min at 37° C.

podocyte FP = test: Podocyte foot process architecture by electron microscopy after gene delivery; format: in vivo, mouse; settings: gene delivery into wildtype mice
Description: Next it was explored whether gene delivery of dynamin mutants dynR725A and dynL356Q, G358V into mice can be expressed in podocytes and if this procedure can affect podocyte FP architecture and function. First, we needed to establish a safe and reliable detection system of transferred gene expression in podocytes. Therefore we analyzed which dynamin isoforms are expressed in podocytes by RT-PCR. Podocytes express mainly dynamin 2 and little dynamin 3 but no dynamin 1 (FIG. 5A). Gene-transfer CMV promotor driven dynamin 1 constructs were used because neuronal dynamin protein is normally not expressed in podocytes and could be easily tracked by a specific monoclonal dynamin 1 antibody (FIG. 5B). […] Monoclonal dynamin antibodies MAB 5402 […] were used, which predominantly recognize dynamin 1 (FIG. 5B). Labeling of glomerular sections with MAB 5402 detected some minimal background labeling of dynamin, representing endogenous dynamin 2 (FIG. 5C). The gene transfer of dynamin 1 expression vectors led to a strong expression of dynamin 1 in glomerular cells including podocytes (FIG. 5D). Some of this labeling was also detected in podocytes, which are marked positively by synaptopodin staining, resulting in a yellow staining pattern (FIG. 5E).

Sequence of cathepsin L (P06797 114-333 limits assumed): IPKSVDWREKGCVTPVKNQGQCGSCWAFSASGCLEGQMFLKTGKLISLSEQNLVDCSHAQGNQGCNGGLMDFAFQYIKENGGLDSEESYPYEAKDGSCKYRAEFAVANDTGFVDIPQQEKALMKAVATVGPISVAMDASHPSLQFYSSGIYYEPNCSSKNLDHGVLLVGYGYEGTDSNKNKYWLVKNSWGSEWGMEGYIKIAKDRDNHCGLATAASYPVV

Molecule	p40 generation from dynamin variant, in words (cathepsin L)	transferrin uptake (endocytosis), in words (podocytes)	podocyte FP architecture, in words (podocyte FP)
dynWT: wild type dynamin overexpressed by adenovirus or delivered as dynamin 1 cDNA	resulted in generation of p40	did not enhance the overall transferring uptake	did not result in changes of podocyte FP architecture
B1	did not result in detectable levels of p40	completely inhibited transferring uptake	induced a severe rearrangement of the actin based podocyte FPs
B2	completely abolished presence of the p40; also recorded: did not generate p40	exhibited the wild-type levels of endocytosis	resulted in partial FP effacement
B3		lead to increase in transferring uptake	
B4	yielded no p40		did not show any significant changes in podocyte FP structure
